Assay results reported in article PMC5087665.

Target: CFF–Myc
Experiment: co-IP; Fig. 5D: HEK293T lysates co-expressing HA–TNPO1, CFF–Myc and GFP–Rab8-wt, GFP–Rab8-QL, GFP–Rab8-TN or GFP; anti-Myc immunoprecipitation; blotted for TNPO1 and GFP chimeras

Chain of HA–TNPO1 (Q92973 whole entry): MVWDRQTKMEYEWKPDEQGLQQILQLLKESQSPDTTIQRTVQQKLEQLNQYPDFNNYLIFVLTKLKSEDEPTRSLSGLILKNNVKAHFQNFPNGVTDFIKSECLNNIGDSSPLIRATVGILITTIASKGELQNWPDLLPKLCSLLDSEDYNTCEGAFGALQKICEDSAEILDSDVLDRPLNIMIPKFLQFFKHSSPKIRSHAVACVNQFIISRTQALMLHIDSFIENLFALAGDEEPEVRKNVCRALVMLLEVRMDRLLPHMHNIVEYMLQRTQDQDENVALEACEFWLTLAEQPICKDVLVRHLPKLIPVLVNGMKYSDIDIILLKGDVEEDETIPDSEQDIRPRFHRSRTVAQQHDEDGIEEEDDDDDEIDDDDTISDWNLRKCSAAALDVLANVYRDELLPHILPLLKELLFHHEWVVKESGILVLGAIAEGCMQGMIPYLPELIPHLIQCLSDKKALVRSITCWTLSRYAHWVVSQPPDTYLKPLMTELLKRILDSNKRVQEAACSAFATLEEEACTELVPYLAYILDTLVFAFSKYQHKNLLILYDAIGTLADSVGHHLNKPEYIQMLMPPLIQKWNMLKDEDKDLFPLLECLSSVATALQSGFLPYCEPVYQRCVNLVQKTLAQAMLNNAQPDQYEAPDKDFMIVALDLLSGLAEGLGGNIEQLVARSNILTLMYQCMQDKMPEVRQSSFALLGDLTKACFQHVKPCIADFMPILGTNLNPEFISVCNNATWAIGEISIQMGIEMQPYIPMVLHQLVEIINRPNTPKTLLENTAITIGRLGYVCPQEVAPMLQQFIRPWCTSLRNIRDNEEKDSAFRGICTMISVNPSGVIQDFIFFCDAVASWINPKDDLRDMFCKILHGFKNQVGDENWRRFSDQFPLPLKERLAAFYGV

HA–TNPO1 (from UniProt Q92973 1-898) (natural protein)
fold more TNPO1 co-immunoprecipitated with Rab8-TN co-expressed than with Rab8-QL or Rab8-wt: 3 fold
